The results in this text go back to paper PMC4911930.

For this assay, the target named is CENP-T^HFD/-W complex, Q5EE01. The experiment in a line: GST pull-down (Coomassie gel quantification). Particulars: chain shown with the change, parent: est. 100, read off a plot.
Sequence of CENP-T^HFD/-W complex, Q5EE01 (chain, as listed by the source, chain 1 of 2): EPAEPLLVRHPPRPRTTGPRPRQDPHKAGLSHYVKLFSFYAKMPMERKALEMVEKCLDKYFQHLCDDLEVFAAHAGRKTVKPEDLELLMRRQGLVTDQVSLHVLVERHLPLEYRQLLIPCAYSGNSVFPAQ
Sequence of CENP-T^HFD/-W complex, Q5EE01 (Q5EE01 whole entry, chain 2 of 2): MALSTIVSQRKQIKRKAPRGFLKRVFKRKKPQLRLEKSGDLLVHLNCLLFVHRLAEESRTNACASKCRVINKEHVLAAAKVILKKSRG

For the molecule EPEGEGSDAAAAAAESEIEDETFNPSEDDYEEEEEDSDED [GST-Spt16 amino acids 926–965, Q9Y5B9 E935A; E936A; G937A; D938A; S939A], the percent of parent stood at 81 % Pull-down (Exp=1) and 90 % Pull-down (Exp=2).
